Reverse-splicing fitness data for 83 variants are collected here from the RNAGym collection of RNA variant scans (doi:10.1093/molbev/msab373).

The chains are these.
B1: Azoarcus group I ribozyme (parent)
chain: GUGCCUUGCGCCGGGAAACCACGCAAGGGAUGGUGUCAAAUUCGGCGAAACCUAAGCGCCCGCCCGGGCGUAUGGCAACGCCGAGCCAAGCUUCGGCGCCUGCGCCGAUGAAGGUGUAGAGACUAGACGGCACCCACCUAAGGCAAACGCUAUGGUGAAGGCAUAGUCCAGGGAGUGGCGAAAGUCACACAAACCGG

In this data set the parent is B1. Kind of data set: reverse-splicing fitness (ratio to wild type); higher = more active; in vitro selection; Mg2+ level not given. A digest of the protocol:
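An in vitro group I ribozyme library with randomized positions was T7-transcribed and gel-purified. In triplicate, 10 pmol RNA in EPPS pH 7.5 was reacted with 50 pmoles of a 30-nt RNA substrate for 1 h at 37 °C across several added MgCl2 levels (1–48 mM), then stopped with EDTA. Products were reverse transcribed from a substrate-complementary primer, PCR-amplified and sequenced (HiSeq 4000). Fitness is a variant's read proportion after selection over that before, normalised to wild type.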
Consider A120G A145G C150U C169U, for which the reverse-splicing fitness stood at 0.37. A120G A145G C150U C169G: the reverse-splicing fitness is 0.502.

As to A120G A145G C150U C169A, the reverse-splicing fitness came out at 0.369. Regarding A120U A145C C150A U176C, the reverse-splicing fitness amounted to 0.061.

With A120U A145C C150A U176G, the reverse-splicing fitness was 0.0538.

Regarding A120U A145C C150A U176A, the reverse-splicing fitness is 0.0864.

Take A120G C150G C169G U176A: the reverse-splicing fitness stood at 0.0132.

For A120G C150G C169G U176C, the reverse-splicing fitness is 0.00733. As to A120G C150G C169G U176G, the reverse-splicing fitness came to 0.00469.

A120G A145G C150A C169G: the reverse-splicing fitness stood at 0.141. Consider A120G A145G C150A C169A, for which the reverse-splicing fitness was found to be 0.0788. In the case of A120G A145G C150A C169U it was 0.107. The figure for A120G C150U U176C is 0.164; for A120G C150U U176A it is 0.125; for A120G C150U U176G it is 0.0157.

Turning to A120G C150G, the reverse-splicing fitness was found to be 0.0593. For the variant A120G C150U, the reverse-splicing fitness worked out at 0.318. With A120G C150A, the reverse-splicing fitness turned out to be 0.0647. In the case of A120U A145G C150G it was 0.25; in that of A120U A145G C150A, 0.361. A120U A145C C150G: the reverse-splicing fitness worked out at 0.293.

Turning to A120U A145C C150A, the reverse-splicing fitness amounted to 0.116. For the variant A120U A145C C150U, the reverse-splicing fitness was 0.459. Consider A120G C150G U176A, for which the reverse-splicing fitness is 0.0287. As for A120G C150G U176G, the reverse-splicing fitness amounted to 0.00499. Turning to A120G C150G U176C, the reverse-splicing fitness was determined as 0.0392. In the case of A120G A145U C169G U176A it was 0.206; in that of A120G A145U C169G U176C, 0.264; in that of A120G A145U C169G U176G, 0.0156. Consider A120G A145U C150U C169U, for which the reverse-splicing fitness came out at 0.33. In the case of A120G A145U C150U C169A it was 0.33; in that of A120G A145U C150U C169G, 0.487. Turning to A120U A145C C150A C169A U176G, the reverse-splicing fitness was 0.00203. Consider A120U A145C C150A C169A U176A, for which the reverse-splicing fitness is 0.00216. As for A120U A145C C150A C169A U176C, the reverse-splicing fitness stood at 0.00175. With A120G A145C C150G C169G U176A, the reverse-splicing fitness was found to be 0.0244. Regarding A120G A145C C150G C169G U176C, the reverse-splicing fitness was determined as 0.0117.

Turning to A120G A145C C150G C169G U176G, the reverse-splicing fitness was 0.00456. In the case of A120U A145C C150U C169G U176G it was 0.00233; in that of A120U A145C C150U C169G U176A, 0.0156; in that of A120U A145C C150U C169G U176C, 0.0135. The figure for A120G A145U C150A C169U U176A is 0.0594. Turning to A120G A145U C150A C169U U176C, the reverse-splicing fitness was found to be 0.0534. For A120G A145U C150A C169U U176G, the reverse-splicing fitness came to 0.00749. In the case of A120G A145U C150G C169U it was 0.0748; in that of A120G A145U C150G C169A, 0.0517. For A120G A145U C150G C169G, the reverse-splicing fitness was 0.0994. In the case of A120G A145G C150A C169U U176G it was 0.00665; in that of A120G A145G C150A C169U U176C, 0.0707.

On to A120G A145G C150A C169U U176A, for which the reverse-splicing fitness is 0.0726. For the variant A120U A145C C169G U176C, the reverse-splicing fitness stood at 0.0504. Turning to A120U A145C C169G U176A, the reverse-splicing fitness came to 0.0356. A120U A145C C169G U176G: the reverse-splicing fitness worked out at 0.00318. A120G C150G C169U U176C: the reverse-splicing fitness was determined as 0.0422. In the case of A120G C150G C169U U176A, the reverse-splicing fitness turned out to be 0.0245. Consider A120G C150G C169U U176G, for which the reverse-splicing fitness was found to be 0.00662.

For the variant A120G A145G C169U U176G, the reverse-splicing fitness was 0.0155. For A120G A145G C169U U176A, the reverse-splicing fitness was determined as 0.172. On to A120G A145G C169U U176C, for which the reverse-splicing fitness is 0.199. Turning to A120G C150A U176A, the reverse-splicing fitness came out at 0.0445. Take A120G C150A U176C: the reverse-splicing fitness amounted to 0.058. With A120G C150A U176G, the reverse-splicing fitness is 0.0094. For the variant A120U A145C C150G C169A U176A, the reverse-splicing fitness worked out at 0.00247. The figure for A120U A145C C150G C169A U176C is 0.00228; for A120U A145C C150G C169A U176G it is 0.00186. In the case of A120G A145U C150A C169A U176A, the reverse-splicing fitness came to 0.0229. A120G A145U C150A C169A U176C: the reverse-splicing fitness came to 0.035. Take A120G A145U C150A C169A U176G: the reverse-splicing fitness is 0.00487. The figure for A120G C150U C169A U176A is 0.0776; for A120G C150U C169A U176G it is 0.00612. A120G C150U C169A U176C: the reverse-splicing fitness was 0.126. In the case of A120U A145G C150A C169U it was 0.0612. In the case of A120U A145G C150A C169G it was 0.0459; in that of A120U A145G C150A C169A, 0.00622. For A120G A145U C150U U176G, the reverse-splicing fitness amounted to 0.0161. As to A120G A145U C150U U176C, the reverse-splicing fitness stood at 0.184. Take A120G A145U C150U U176A: the reverse-splicing fitness came to 0.155. On to A120G A145G C150G C169G U176G, for which the reverse-splicing fitness is 0.00607. As to A120G A145G C150G C169G U176A, the reverse-splicing fitness worked out at 0.0179. On to A120G A145G C150G C169G U176C, for which the reverse-splicing fitness is 0.0152. With A120U A145C C169A, the reverse-splicing fitness is 0.0147. Consider A120U A145C C169U, for which the reverse-splicing fitness came out at 0.263. In the case of A120U A145C C169G, the reverse-splicing fitness was 0.231.
